Laboratory results reported in patent US20120184713A1, “Compositions and Methods for Modulation of Bone Density and Biomineralization” (priority 2011, published 2012).
Where a chain is given by its changes, count along the chain named. Numbers in names are those of the source.

Key:
FAM20C = molecular target: T1, FAM20C (Mus musculus, UniProt Q5MJS3); test: FAM20C in vitro kinase assay with dephosphorylated alpha-Casein as substrate; format: biochemical; conditions: Casein as model substrate; 5 minute assays
T1 construct: His (from vector pcDNA3.1/V5-His B) (C); made in house; host or cells: HEK293T
T1 sequence (Q5MJS3 88-579): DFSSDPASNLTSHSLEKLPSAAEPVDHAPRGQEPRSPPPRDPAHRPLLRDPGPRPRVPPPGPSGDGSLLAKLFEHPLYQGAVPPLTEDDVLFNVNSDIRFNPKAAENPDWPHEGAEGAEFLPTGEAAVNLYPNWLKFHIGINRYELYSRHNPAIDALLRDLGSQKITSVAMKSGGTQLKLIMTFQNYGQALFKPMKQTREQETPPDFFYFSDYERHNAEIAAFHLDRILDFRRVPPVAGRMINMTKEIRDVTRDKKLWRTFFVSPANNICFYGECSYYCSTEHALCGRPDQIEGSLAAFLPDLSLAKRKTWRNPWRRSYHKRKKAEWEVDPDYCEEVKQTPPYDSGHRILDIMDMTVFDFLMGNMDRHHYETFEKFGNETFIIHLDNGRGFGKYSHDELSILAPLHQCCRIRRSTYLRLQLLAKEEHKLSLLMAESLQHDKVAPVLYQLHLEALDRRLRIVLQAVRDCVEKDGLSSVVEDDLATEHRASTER
Experimental: For FAM20C:V5 purification, pcDNA-FAM20C:V5 was transfected to HEK293T cells, and FAM20C:V5 was purified from conditioned media using anti-V5 agarose beads (Sigma). Condition media were incubated with anti-V5 affinity gel (Sigma) overnight at 4° C. Agarose beads were collected by centrifugation, and washed 5 times with TBS. Proteins were eluted using V5 peptides in TBS (Sigma, final concentration: 100 μg/ml). For purification of OPN:FLAG, BSP:FLAG, DMP1:FLAG, DSPP:FLAG and MEPE:FLAG, condition media were incubated with anti-FLAG M2 affinity gel (Sigma) overnight at 4° C. Agarose beads were collected by centrifugation, and washed 5 times with TBS. Purified quantification was performed on gels stained by SYPRO Ruby Protein Gel Stain (Invitrogen), using BSA as a standard.
FAM20C kinase assays were performed in 10 μl reactions, with 500 μM ATP, including 3 μCi (0.05 μM) of [gamma-^32P]ATP (6000 Ci/mmol, PerkinElmer), 50 mM Tris (pH 7.0), 10 mM MnCl2, 0.1% BSA, purified FAM20C:V5 (5 ng, […]), and dephosphorylated alpha-Casein (0.1 μg, Sigma). […] Radioactivity within the gels was detected using a Molecular Dynamics Phosphor Imager. For quantitation of gamma-^32P incorporation, bands were cut out of the gels using the Phosphor Imager pictures as a reference, and then counted by liquid scintillation using a Beckman Coulter LC6500. […]

OPN-ASARM peptide = test: Kinase assays of FAM20C mutant proteins; format: biochemical, human; conditions: recombinant mouse FAM20C:V5 mutants; for the mutants OPN-ASARM peptide (1) as substrate, FIG. 8f
Experimental: Site-specific mutagenesis was performed by PCR essentially as described^26, by using primers […] and […] (SEQ ID NO: 25) (FAM20C^GG), […] (SEQ ID NO: 26) and […] (FAM20C^D453G) (SEQ ID NO: 27), […] (SEQ ID NO: 28) and […] (FAM20C^G374R) (SEQ ID NO: 29), […] and […] (FAM20C^G374E) (SEQ ID NO: 30), […] (SEQ ID NO: 31) and […] (FAM20C^E383R) (SEQ ID NO: 32), […] (SEQ ID NO: 33) and […] (FAM20C^R544W) (SEQ ID NO: 34), […] (SEQ ID NO: 35) and […] (FAM20C^1241N)(SEQ ID NO: 36), […] (SEQ ID NO: 37) and […] (FAM20C^G261R) (SEQ ID NO: 38), […] (SEQ ID NO: 39) and […] (FAM20C^D446N) (SEQ ID NO:40). All mutations were confirmed by DNA sequencing.
FAM20C kinase assay with peptides substrates were performed in 10 μl reactions, with 500 μM ATP, including 3 μCi (0.05 μM) of [gamma-^32P]ATP (6000 Ci/mmol, PerkinElmer), 50 mM Tris (pH 7.0), 10 mM MnCl2, 0.1% BSA, purified FAM20C:V5 and peptides. Casein Kinase I (500 units, NEB) was used as a control kinase. mutant versions (5 ng, […]), and peptides (2.5 μg, 1 nmol as a standard condition. 250 ng, […] in FAM20C mutants). Reactions were stopped by adding 1.5 μl 0.1N—HCl, and one half of the reaction volume was pipetted on to P81 phospho-cellulose filter paper^27. The filter papers were washed with 0.5% phosphoric acid and subjected to liquid scintillation counting.

B1: FAM20C: affinity purified V5-tagged mouse FAM20C, Golgi-localized protein kinase (protein)
chain: T1 sequence (Q5MJS3 88-579)
modifications: left off: small tags and cut ends
FAM20C
  V.: 0.7 μM ATP/min/mg FAM20C
  turnover number (kcat): 52 per minute

B2: 1241N: recombinant mouse FAM20C:V5 carrying Raine syndrome patient mutation 1241N (protein, UniProt Q5MJS3 88-579, looked up, variant I241N)
Extracellular …: T1 sequence (Q5MJS3 88-579) with I154N
modifications: V5 tag
notes: recombinant mouse FAM20C:V5 carrying Raine syndrome patient mutation 1241N
OPN-ASARM peptide
  kinase activity of FAM20C mutant isoform: no detectable kinase activity

B3: G261R: recombinant mouse FAM20C:V5 carrying Raine syndrome patient mutation G261R (protein, UniProt Q5MJS3 88-579, looked up, variant G261R)
Extracellular …: T1 sequence (Q5MJS3 88-579) with G174R
modifications: V5 tag
OPN-ASARM peptide
  kinase activity of FAM20C mutant isoform: diminished kinase activity

B4: G374R: recombinant mouse FAM20C:V5 carrying Raine syndrome patient mutation G374R (protein, UniProt Q5MJS3 88-579, looked up, variant G374R)
Extracellular …: T1 sequence (Q5MJS3 88-579) with G287R
modifications: V5 tag
OPN-ASARM peptide
  kinase activity of FAM20C mutant isoform: no detectable kinase activity

B5: DN473-474GG: FAM20C:V5 with a mutation in a motif predicted to bind metal ion cofactors (protein, UniProt Q5MJS3 88-579, looked up, variant D473G N474G)
Extracellular …: T1 sequence (Q5MJS3 88-579) with D386G, N387G
modifications: V5 tag
OPN-ASARM peptide
  kinase activity of FAM20C mutant isoform: abolished catalytic activity

B6: D453G: FAM20C:V5 with a mutation in a conserved Asp residue (protein, UniProt Q5MJS3 88-579, looked up, variant D453G)
Extracellular …: T1 sequence (Q5MJS3 88-579) with D366G
modifications: V5 tag
notes: FAM20C:V5 with a mutation in a conserved Asp residue
OPN-ASARM peptide
  kinase activity of FAM20C mutant isoform: abolished catalytic activity

B7: G374E: recombinant mouse FAM20C:V5 carrying Raine syndrome patient mutation G374E (protein, UniProt Q5MJS3 88-579, looked up, variant G374E)
Extracellular …: T1 sequence (Q5MJS3 88-579) with G287E
modifications: V5 tag
OPN-ASARM peptide
  kinase activity of FAM20C mutant isoform: no detectable kinase activity
